pKd: −log10 of the molar value.

Test [1] concerns the target His-tagged ectodomain of human transferrin receptor 1 (hTfR1), amino acids R121-F760 (human) (UniProt P02786). Kind of test: SPR; binder captured on protein A, receptor as analyte 0.156-40 nM; no hTf. Background: Surface plasmon resonance follows binding to a sensor surface in real time, without labels.
Test [2] has as its target His-tagged ectodomain of cynomolgus transferrin receptor 1 (cTfR1), amino acids R121-F760 (cynomolgus monkey). The description is as above.
Test [3] has as its target His-tagged ectodomain of human transferrin receptor 1 (hTfR1), amino acids R121-F760 (human) (UniProt P02786). In words: SPR (Biacore T200, single-cycle); hTfR1 captured on amine-coupled hTf, binder as analyte 6.25-100 nM.
For test [4] the target is unchanged. Kind of test: SPR; binder captured on protein A, receptor as analyte 0.156-40 nM; with 250 nM hTf.
In test [5] the target is His-tagged ectodomain of cynomolgus transferrin receptor 1 (cTfR1), amino acids R121-F760 (cynomolgus monkey). The description is as above.
Test [6] concerns the target Apical domain construct of hTfR1 displayed on M13 phage (human). Kind of test: Seqitope mutagenic scanning of the phage-displayed apical domain of hTfR1.

Sequence of His-tagged ectodomain of cynomolgus transferrin receptor 1 (cTfR1), amino acids R121-F760 (cynomolgus monkey) (Q5RDH6 other isoform, or with tags, fused parts or gaps limits assumed): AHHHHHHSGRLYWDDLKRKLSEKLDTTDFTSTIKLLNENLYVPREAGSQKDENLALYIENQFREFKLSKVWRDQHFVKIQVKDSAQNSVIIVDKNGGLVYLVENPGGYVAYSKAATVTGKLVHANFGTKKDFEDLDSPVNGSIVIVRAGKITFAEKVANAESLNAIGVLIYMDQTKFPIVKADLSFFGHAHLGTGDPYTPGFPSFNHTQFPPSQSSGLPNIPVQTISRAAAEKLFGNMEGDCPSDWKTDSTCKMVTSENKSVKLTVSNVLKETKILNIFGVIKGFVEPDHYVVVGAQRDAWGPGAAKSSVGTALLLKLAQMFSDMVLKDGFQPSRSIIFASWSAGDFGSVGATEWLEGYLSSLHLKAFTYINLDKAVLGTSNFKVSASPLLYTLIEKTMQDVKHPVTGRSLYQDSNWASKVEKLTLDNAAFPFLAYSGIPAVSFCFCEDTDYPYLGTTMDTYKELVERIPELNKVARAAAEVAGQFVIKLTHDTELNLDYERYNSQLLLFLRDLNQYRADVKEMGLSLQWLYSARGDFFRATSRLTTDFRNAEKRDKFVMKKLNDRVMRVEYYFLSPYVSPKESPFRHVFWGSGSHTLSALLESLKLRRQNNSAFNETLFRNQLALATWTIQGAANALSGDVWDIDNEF
Sequence of His-tagged ectodomain of human transferrin receptor 1 (hTfR1), amino acids R121-F760 (human) (P02786 other isoform, or with tags, fused parts or gaps limits assumed): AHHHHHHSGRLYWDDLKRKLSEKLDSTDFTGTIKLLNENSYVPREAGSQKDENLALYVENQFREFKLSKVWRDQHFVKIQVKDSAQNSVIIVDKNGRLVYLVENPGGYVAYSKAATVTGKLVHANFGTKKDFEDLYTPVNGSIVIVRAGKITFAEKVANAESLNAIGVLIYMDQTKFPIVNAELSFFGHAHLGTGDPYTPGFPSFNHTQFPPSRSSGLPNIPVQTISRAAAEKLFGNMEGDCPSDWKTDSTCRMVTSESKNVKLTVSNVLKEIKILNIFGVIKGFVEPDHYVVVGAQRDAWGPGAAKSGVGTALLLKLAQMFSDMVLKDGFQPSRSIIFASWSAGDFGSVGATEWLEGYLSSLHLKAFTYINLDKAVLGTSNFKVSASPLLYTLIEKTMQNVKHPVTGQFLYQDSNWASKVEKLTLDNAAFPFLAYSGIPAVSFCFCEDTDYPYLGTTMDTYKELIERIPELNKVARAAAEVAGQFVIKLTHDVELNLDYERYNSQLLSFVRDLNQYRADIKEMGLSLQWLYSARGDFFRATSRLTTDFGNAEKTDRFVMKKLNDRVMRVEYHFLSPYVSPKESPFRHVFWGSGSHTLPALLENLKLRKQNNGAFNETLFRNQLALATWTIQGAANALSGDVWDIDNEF

The pKd is the negative decadic logarithm of the Kd, by convention in mol/L. High values mean a low Kd, low ones a high Kd. Usually koff stands for the rate constant with which the complex falls apart. The kon is a measure of how fast the partners come together. Read a high kon as fast association. “Benchmark antibody 128.1 (BA1), full length human IgG1”: in test [1], the pKd was 10.00, the dissociation rate constant (koff) was found to be 8.87e-05 s⁻¹ and the kon was 882000 M⁻¹ s⁻¹. In addition, in test [2], the negative-log Kd (pKd) is 9.38, the off-rate constant (koff) amounted to 8.85e-05 s⁻¹ and the on-rate constant (kon) stood at 214000 M⁻¹ s⁻¹. In test [3], this substance showed a negative-log Kd (pKd) of 10.70, an off-rate constant (koff) of 5.63e-05 s⁻¹ and a kon of 2.82e+06 M⁻¹ s⁻¹. In test [4], this substance had a pKd of 10.08, a dissociation rate constant (koff) of 5.77e-05 s⁻¹ and a kon of 692000 M⁻¹ s⁻¹. In test [5], this substance showed a negative-log Kd (pKd) of 9.48, a koff of 8e-05 s⁻¹ and an on-rate constant (kon) of 242000 M⁻¹ s⁻¹. Moreover, in test [6], the Binding Ratio (BR) of residue D242 turned out to be 3.56, the Binding Ratio (BR) of residue E369 was 6.88, the Binding Ratio (BR) of residue G351 was 3.27 and the Binding Ratio (BR) of residue L246 came to 3.36. In test [6], the Binding Ratio (BR) of residue P249 came out at 2.64, the Binding Ratio (BR) of residue R364 was found to be 2.64 and the Binding Ratio (BR) of residue V366 was determined as 4.15.

The values are drawn from US20260184804A1.
